Test results taken from the supplement of paper PMC10126150.
± gives the standard deviation of the averaged measurements.

System: ATP
Experiment: switch fluorescence ratio, 500 uM ATP over buffer (Cy3 cluster intensity, sum of 5 cycles each) (fold (ratio)); higher = stronger signal-on switching upon ATP binding; sequences stand for … in TCGTCGGCAGCGTCAGATGTGTATAAGAGACAGTTTTTTTTTTTTTTTTTTTTTTTTT…TC
Settings: aptamer strand: ATP DNA aptamer (quencher-CACCTGGGGGAGTATTGCGGAGGAAGG + anchor), 100 nM annealed; ATP concentration: 500 uM
Summary of the method: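 Imaging in selection buffer was followed by imaging after 15 min with 500 uM ATP at 22 °C, for Cy3-labelled switching-strand clusters annealed to 100 nM quencher-labelled ATP aptamer on a modified Illumina MiSeq flow-cell. Five of these buffer/ATP cycles ran, separated by NaOH stripping and re-annealing. The fluorescence ratio per cluster is summed target-cycle over summed buffer-cycle Cy3 intensity, averaged per switch-domain sequence; clusters outside 100-1000 RFU were removed.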
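Also: ATP exposure 15 min at 22 °C before imaging.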

Sequence | switch fluorescence ratio
AAGAAGCAGG | 1.06 ± 0.037
AAGAAGGGCA | 1 ± 0.055
AAGAAGGGGA | 1.22 ± 0.31
AAGAATATGT | 0.9756 ± 0.008
AAGAATTGGG | 1.06 ± 0.11
AAGACACGC | 1.04 ± 0.042
AAGACAGGAA | 1.03 ± 0.05
AAGACATGGG | 1.002 ± 0.0021
AAGACCGTTG | 0.967 ± 0.017
AAGACGGGGA | 0.974 ± 0.023
AAGAGACTGT | 1.002 ± 0.0034
AAGAGGCTGG | 0.99 ± 0.024
AAGAGGGACT | 1.03 ± 0.021
AAGAGGGCGG | 0.991 ± 0.034
AAGAGGGGAG | 1.01 ± 0.013
AAGAGGGGGA | 0.996 ± 0.042
AAGAGGGGGT | 1 ± 0.03
AAGAGGGGT | 0.9904 ± 0.0048
AAGAGGTTTT | 1.01 ± 0.02
AAGAGTAGAT | 1.01 ± 0.017
AAGAGTATCT | 1.01 ± 0.013
AAGAGTATTG | 1 ± 0.02
AAGAGTTTTT | 0.981 ± 0.033

Sequence | switch fluorescence ratio
AAGATACGTT | 1.03 ± 0.011
AAGATAGGTT | 1.02 ± 0.057
AAGATATGGC | 1.02 ± 0.047
AAGATCAGGC | 0.9735 ± 0.0023
AAGATGAGTA | 0.982 ± 0.032
AAGATGATGG | 1.01 ± 0.023
AAGATGGGTG | 0.9968 ± 0.005
AAGATGTAAT | 1.01 ± 0.0079
AAGATGTCGT | 1.022 ± 0.0014
AAGATTAGTT | 0.998 ± 0.017
AAGATTCGCC | 0.993 ± 0.012
AAGATTGTAA | 0.996 ± 0.03
AAGATTTAGG | 1.01 ± 0.063
AAGATTTGAC | 1.003 ± 0.0085
AAGATTTGTT | 0.978 ± 0.021
AAGATTTTAT | 0.977 ± 0.019
AAGATTTTGT | 0.995 ± 0.014
AAGATTTTTC | 0.992 ± 0.013
AAGCACGGTT | 1.08 ± 0.093
AAGCACGTTG | 1.05 ± 0.027
AAGCAGACGG | 1.05 ± 0.036
AAGCAGGGCT | 0.999 ± 0.019
AAGCAGGGTG | 1 ± 0.04

Sequence | switch fluorescence ratio
AAGCAGTCA | 1.01 ± 0.038
AAGCAGTTAC | 3.41 ± 0.3
AAGCATCTTT | 0.974 ± 0.013
AAGCATTTAC | 3.118 ± 0.021
AAGCCAGATG | 1.076 ± 0.0092
AAGCGAGGGG | 1.03 ± 0.047
AAGCGAGTTC | 0.9981 ± 0.0089
AAGCGCTTTT | 0.979 ± 0.058
AAGCGGGACG | 0.999 ± 0.054
AAGCGGGCAG | 1 ± 0.02
AAGCGGGGTG | 1.06 ± 0.063
AAGCGGTCGC | 0.99 ± 0.017
AAGCGTGCCT | 1.01 ± 0.018
AAGCTACGGC | 1.02 ± 0.019
AAGCTAGGAG | 0.999 ± 0.041
AAGCTCGGTA | 0.9866 ± 0.0065
AAGCTGATCT | 1.016 ± 0.0071
AAGCTGCCTG | 1.02 ± 0.018
AAGCTGTTTC | 1.009 ± 0.0061
AAGCTTTACG | 1.052 ± 0.0079
AAGCTTTATG | 1.003 ± 0.0052
AAGCTTTGGA | 0.983 ± 0.012
AAGCTTTTAT | 0.993 ± 0.06

Sequence | switch fluorescence ratio
AAGGAAAGGC | 0.961 ± 0.037
AAGGAAATAG | 0.969 ± 0.0021
AAGGAAGAGG | 0.984 ± 0.064
AAGGAATTAA | 1.07 ± 0.12
AAGGAATTGT | 0.9729 ± 0.0085
AAGGAATTTT | 1.05 ± 0.1
AAGGACAAGG | 0.999 ± 0.043
AAGGACCTCC | 1.232 ± 0.0034
AAGGACGCTG | 0.991 ± 0.069
AAGGACGTGG | 0.98 ± 0.029
AAGGACTAAC | 1.12 ± 0.012
AAGGACTATT | 1.03 ± 0.011
AAGGAGCTGA | 0.9915 ± 0.0037
AAGGAGTTTT | 0.973 ± 0.034
AAGGATTAGA | 0.987 ± 0.02
AAGGATTGGG | 1.02 ± 0.0049
AAGGCAACGC | 0.98 ± 0.056
AAGGCAATTT | 1.02 ± 0.048
AAGGCACCTG | 1.03 ± 0.042
AAGGCATGCA | 1.01 ± 0.032
AAGGCATGCG | 1.037 ± 0.005
AAGGCATTAT | 1.005 ± 0.0081
AAGGCCGGGT | 1.05 ± 0.054

Sequence | switch fluorescence ratio
AAGGCGGGGA | 1.017 ± 0.0051
AAGGCGGGGC | 0.981 ± 0.051
AAGGCTGCAG | 0.92 ± 0.05
AAGGCTTAGC | 1.03 ± 0.039
AAGGGAATAC | 2.6 ± 0.82
AAGGGATCTG | 0.9763 ± 0.0069
AAGGGATGCG | 1.09 ± 0.097
AAGGGATGGC | 1.03 ± 0.043
AAGGGATTAA | 1.01 ± 0.016
AAGGGATTGG | 0.981 ± 0.031
AAGGGCCTGG | 0.982 ± 0.029
AAGGGCGTAT | 1.01 ± 0.02
AAGGGCTCAT | 0.97409 ± 0.00079
AAGGGCTGTG | 0.9845 ± 0.007
AAGGGGACTT | 1.02 ± 0.037
AAGGGGAGGT | 1.02 ± 0.041
AAGGGGAGTC | 1.01 ± 0.0044
AAGGGGAGTG | 1.02 ± 0.11
AAGGGGATGG | 0.968 ± 0.038
AAGGGGATTA | 0.99 ± 0.033
AAGGGGCATT | 1.01 ± 0.011
AAGGGGCGAG | 0.9796 ± 0.0074
AAGGGGCGCC | 0.999 ± 0.052

Sequence | switch fluorescence ratio
AAGGGGCGGG | 0.952 ± 0.011
AAGGGGGAGC | 0.988 ± 0.042
AAGGGGGCAG | 0.994 ± 0.025
AAGGGGGCCG | 1.06 ± 0.092
AAGGGGGCGG | 1 ± 0.015
AAGGGGGGAC | 1.04 ± 0.07
AAGGGGGGCG | 1.02 ± 0.037
AAGGGGGGGT | 0.999 ± 0.03
AAGGGGGTAA | 0.977 ± 0.012
AAGGGGTCTT | 0.981 ± 0.027
AAGGGGTTCA | 0.991 ± 0.03
AAGGGTAGAT | 1.01 ± 0.038
AAGGGTAGGA | 1 ± 0.013
AAGGGTAGGC | 1.03 ± 0.042
AAGGGTAGTT | 0.997 ± 0.028
AAGGGTATGT | 0.981 ± 0.029
AAGGGTCCAC | 0.9907 ± 0.0079
AAGGGTGAC | 1.01 ± 0.032
AAGGGTGCGA | 1.02 ± 0.04
AAGGGTGCTA | 0.9787 ± 0.0016
AAGGGTGTCA | 1.022 ± 0.0032
AAGGGTTAGA | 0.9864 ± 0.0021
AAGGGTTTGC | 0.974 ± 0.022

Sequence | switch fluorescence ratio
AAGGGTTTTT | 0.994 ± 0.025
AAGGTACTAC | 1.03 ± 0.065
AAGGTAGAGC | 1.03 ± 0.034
AAGGTAGCAC | 1.03 ± 0.011
AAGGTAGCGC | 0.974 ± 0.059
AAGGTAGGGT | 1.025 ± 0.0034
AAGGTAGTGT | 0.989 ± 0.028
AAGGTATGGG | 1.06 ± 0.073
AAGGTCATAA | 1.01 ± 0.053
AAGGTCCGCG | 1.08 ± 0.027
AAGGTCGCGT | 0.9906 ± 0.0039
AAGGTCTTTA | 1 ± 0.035
AAGGTGGGGA | 1.02 ± 0.034
AAGGTGGTTG | 0.969 ± 0.016
AAGGTTCGGG | 0.994 ± 0.018
AAGGTTGTTG | 1 ± 0.012
AAGGTTTTTT | 1.01 ± 0.02
AAGTACCTAT | 1.27 ± 0.058
AAGTACTTGG | 1.17 ± 0.017
